Assay: soluble on expression in E. coli; label from the status in PepcDB or PDB records

Which “soluble on expression in E. coli” value does the source give for “MDADEGQDMSQVSGKESPPVSDTPDEGDEPMPIPEDLSTTSGGQQSSKSDRVVASNVKVETQSDEENGRACEMNGEECAEDLRMLDASGEKMNGSHRDQGSSALSGVGGIRLPNGKLKCDICGIICIGPNVLMVHKRSHTGERPFQCNQCGASFTQKGNLLRHIKLHSGEKPFKCHLCNYACRRRDALTGHLRTHSVIKEETNHSEMAEDLCKIGSERSLVLDRLASNVAKRKSSMPQKFLGDKGLSDTPYDSSASYEKENEMMKSHVMDQAINNAINYLGAESLRPLVQTPPGGSEVVPVISPMYQLHKPLAEGTPRSNHSAQDSAVENLLLLSKAKLVPSEREASPSNSCQDSTDTESNNEEQRSGLIYLTNHIAPHARNGLSLKEEHRAYDLLRAASENSQDALRVVSTSGEQMKVYKCEHCRVLFLDHVMYTIHMGCHGFRDPFECNMCGYHSQDRYEFSSHITRGEHRFHMS” here?
Its value is “not soluble”.

Which “soluble on expression in E. coli” value does the source give for “VTRPRPPLGPAMAGAVDLSGIKQRAQQNAAASTDADRALSTPSGVTEITEANFEDEVIVRSDEVPVVVLLWSPRSEVCVDLLDTLSGLAAAAKGKWSLASVNVDVAPRVAQIFGVQAVPTVVALAAGQPISSFQGLQPADQLSRWVDSLLSATAGKLKGAASSEESTEVDPAVAQARQQLEDGDFVAARKSYQAILDANPGSVEAKAAIRQIEFLIRATAQRPDAVSVADSLSDDIDAAFAAADVQVLNQDVSAAFERLIALVRRTSGEERTRVRTRLIELFELFDPADPEVVAGRRNLANALY” here?
The value was “not soluble”.

For “MWSVTDSPLDDAIQEAKSAAQKAGFDTETFAAVQSKEGRTSFAFELEGLGSASSVSELEEAIEQIEGVDAKIVYPSAMAWISASRTLDPTLIVDAFQQHGVTATLTDSSLRRRLAWTDVEEGRYRRARARRFGSRVDEESRRFEIARREGFLHKRDETTRVVETTEVLFTARSLMTKAR”, which “soluble on expression in E. coli” value is on record?
The value was “not soluble”.

Which “soluble on expression in E. coli” value does the source give for “MKKFDGVIFDMDGLLFDTELIYYTSTQKVADAMGLPYSKEVYLDYVGISDEEVQENYRRIYASYGHDTVEEFIRRSYDDTLQEFRSGNVPLKPGVVEFLDFLDDQKIPRLVASSNVRPAIEMLLSHAGIQDRFVGIVSAEDVKRAKPDPEIFQKARQLLGTEAPKTLIFEDSFHGVSAAHSAGIPVIMVPDLLQPTEVIQEKTLHVLESLHQAPHYLK” here?
The value was “not soluble”.

With “MDTIQKRPRTRLSPEKRKEQLLDIAIEVFSQRGIGRGGHADIAEIAQVSVATVFNYFPTREDLVDDVLNKVENEFHQFINNSISLDLDVRSNLNTLLLNIIDSVQTGNKWIKVWFEWSTSTRDEVWPLFLSTHSNTNQVIKTMFEEGIERNEVCNDHTPENLTKMLHGICYSVFIQANRNSSSEEMEETANCFLNMLCIYK” as the sequence, how does the “soluble on expression in E. coli” value read?
The value was “not soluble”.

Which “soluble on expression in E. coli” value does the source give for “MSLKIKALLLDIDGTMVFKGHAIPGAAEAIEAARMAGLQLRFLTNITGQLPSTIAEDLQRHGINVRAEEIHTASTSCARYLKSLGDVSCFFLMPESVNSMFEGIARDHVSPDVVVIGDIGESFDYACLNQAFGYLHKGARLVVPHKNLFWFDPRGVRLDCGAFILGLEAASGKQALVTGKPSPVFFTSVMDSLGVKPSQTMIIGDDLLTDIAAAQHLEVAHALVLTGKGASYTESDVPRPERLWPSIAELSRFLAQSGHNTEGHHHHHH” here?
The value was “soluble”.

With “MGSDKIHHHHHHMKEPTIVKKEAFQAIGISITTTNEKEASTEGKIPGLWNRYFHEQIMHHIPNQQTKETFAFYSNYESDETGTYQFTIGMPVSSLEDVPENMTTLTIPAATYAVFTTRKGPVAEVVCEAWEYIWKWSKGNKRAFTIDFELYDEKATDPNNAQLDIYIALA” as the sequence, how does the “soluble on expression in E. coli” value read?
The value was “not soluble”.

For “MPKSDTKQKKRRSNKNRLRIKRARLFGPKDIDQVKEDIESQKKIEYDPELPGGGHFYCCECDRHFITEKVLMEHKRSNPHRRRAKEVREVAHSQRDAEWAVGLT”, which “soluble on expression in E. coli” value is on record?
The value was “not soluble”.

With “MSLTTRIGFLLFPGFPMACLTSIIEPLRAANEISMSDSFAWRLVSELPRKVVSSAGITFEPDASLETVSALDYLVLLSAPVARFENPRTASLLRRIERHGTVLGAISGGVFPLVRSGVVRDERLSVHWCYEAAFAAEFPEIQRSNEVIEISPRLLTASGAAAAFDLALSLIEAALGANVANEVACWFQHPIMRKAGVKQALPIHQAADAEGEMSPLVARAIEIFAENLTTPASIAAIAERLHITPRHLERCFKQATGQNPTGYFRHLRMQAARQIVMYTNDSIAEVATAVGYANAKPLVRHYRDTFGLTPQQDRKRINLYRVEGNEGHHHHHH” as the sequence, how does the “soluble on expression in E. coli” value read?
The value was “not soluble”.

Which “soluble on expression in E. coli” value does the source give for “MGSDKIHHHHHHMGGKWMRWMAPAPPASNVPKCSCHRLLGKEPPNDSKDCRPGSLTGRALFSDVPRGMAKDVFQVHCVSATGRRVINKKIKRAKLLAFLETLPRCVVGMEACGSAHHWGGELRKLGHDVRLMPAAYVKLYVKRGKTDAADAEAICEAVRRQSMRFVEIESEDQQAVLAIHSARDLVVRQRTQVVNMIRSILREFGHILPTGIEAVSKFAREHGTEDQLDMPEIADGILGVMCHQLNGLNARVDGLTKLIEQHAWLDADARRLMRMPGIGPITASAIVATIGDAKQFETGRDLATWLGLTPLNKSSGGKERLGRIIKKGDRYIRKLLIIGMTSRSLMAKNKPEKADTWTAKLPDEQPFRLATVAMANKSARIIWALLTKREEYRQPIV” here?
Its value is “not soluble”.

For “MGSDKIHHHHHHNGDEKIDSGMVQQDGEVLQLNVRVGDFAINDVSSIRATDSGSTGTFENGDRIGIIVLDADNNVLSDNIPYRYDGNIWSFDSNNDEGKTTIYYDNKATVYLAYFPYSKEVDNVINIDDLKGKFLPQGDQRSKDAYRASDLLVWSDTSGRPLKKLDIVFEHAYSLLSLSPSIKCKINGRRDFTYVPSSISDVSFNVGTEPLFPYQMNDGSYQIIISPKRAKVRWLYEYNKEMYSGAMPDTDLSANTCYTFTPVLKDIGDYTLDKAQMGDFYCKDESNNGYLIPGDVTALSADMNCLGIVLKSGKDSEGEWVDYCKYKQKYGITEMHTVHGYVLALYDANGGNACTWGLWSLTDINRGEPSTGFYGYKNTQGIISFAENENRTLKNGFPPVYWVTDYEYSHPAPANSSGWFLPSLGQCWYWMYNKAYLLSAVNKATGDNDYGWKLGYWSSSEDDYDPFLNAYYADTYVGAMDWDYKNSKHCVRACLAF”, which “soluble on expression in E. coli” value is on record?
Its value is “not soluble”.

Which “soluble on expression in E. coli” value does the source give for “SNATKTIHNARYQALLDLLLEARSAAGITQKELAARLGRPQSFVSKTENAERRLDVIEFMDFCRGIGTDPYALLSKLEAMTPS” here?
Its value is “soluble”.

With “MIKVDQHYFELIENYRECFNEEQFIARYSDILDKYDYIVGDYGYDQLRLKGFYKDSNKKAEMSKRFSNIQDYIFEYCNFGCPYFVLRHLSKQEVKKLIEEVHPSDVIDDDNKLQDVKIKPTIQDTEHLEHHHHHH” as the sequence, how does the “soluble on expression in E. coli” value read?
The value was “not soluble”.

With “MGSDKIHHHHHHMNKQVSTRGTKEKALRLNLDDKKYGTIVEIGAGQEVARNFFVAGAAAGTIAKTMSAYDMTFSDAIYGVQQDGRYVSKARVQAMMEQELDLVIERVGDVRSKSSRYFTYAATVAAKSFNRNNECHAWCGVRVQMYPGAEPSNIVVHVRMFDDNAEAQQQALGVLGVNLIYAAYYYFEDPKKIIDSLTDDLKANRIEIDCIEFQGPYFEDIDSRAKNIHLIRSWKTRAIMFKPDGSVAVPAEMLYKKNVLTIRGSFKPVTKLNVDMIEQGEKAFAELEGVSKDNTIVIAEISLNDSHGKDANMSSTDIIERVKLLNLLGYNVMVSDYTRYFSLRAYFRQYTKLQIGIVVGMINIKQIFDETFYRGLEGGILEGFGKLFPDHTRVFVYPELSETGELKDLTTVNVPNNLRYLYRHLLDNGFITSIESSDINLFSYFSREILKQIAKGSDEWQQALPQPVIDEIISKKLFGYRG” as the sequence, how does the “soluble on expression in E. coli” value read?
The value was “not soluble”.

Which “soluble on expression in E. coli” value does the source give for “MAHHHHHHMKDGDWERRNRLKVYEGIYHVFIRDFKRGSELLLDSISTFASSELMDFNEFILITVVASLPVLSRSELKQQILDSPEVRSANIKDVFHLITVIYNCRYKEVFSALDTVCQHLRGIVYLSQHVNYFFREVRVLVFTQFLDSYSSVTLNSMSAAFGIPPPVLDSMLGTLISNERIACKMDRVSDSITTYRGDTTNFDYHRIVKNGDLLLNRIQKLSRLAEM” here?
Its value is “not soluble”.

Which “soluble on expression in E. coli” value does the source give for “MSQESSVLSESQEQLANNPKIEDTSPPSANSRDNSKPVLPWDYKNKAIEIKSFSGYKVNFTGWIRRDVREERQRGSEFTASDVKGSDDKATRKKEPADEDPEVKQLEKEGEDGLDS” here?
Its value is “soluble”.

Source: the DeepSol protein solubility set
